Here are results for 1 substance from patent US9926369B2, “Methods for treating hepatocellular cancer by administering an anti-Ang-2 antibody” (Regeneron Pharmaceuticals, Inc., priority 2009, dated 2018).

The subject of data set [1] is Monkey Ang-2FD-hFc binding to hTie-2-mFc. The experiment in a line: ELISA blocking of monkey Ang-2FD-hFc binding to hTie-2-mFc. It counts as biochemical. As to conditions: 16.67 nM antibody; 2 nM Ang-2FD-hFc. As for the experimental part: Tie-2 is a natural receptor for Ang-2. Anti-Ang-2 antibodies were tested for their ability to block Ang-2 binding to human Tie-2 (hTie-2). hTie-2-mFc (a chimeric construct consisting of human Tie-2 conjugated to mouse IgG; SEQ ID NO:525) was coated onto 96-well plates at a concentration of 2 μg/ml and incubated overnight followed by washing four times in wash buffer (PBS with 0.05% Tween-20). The plate was then blocked with PBS (Irvine Scientific, Santa Ana, Calif.) containing 0.5% BSA (Sigma-Aldrich Corp., St. Louis, Mo.) for one hour at room temperature. In a separate plate, purified anti-Ang-2 antibodies, at a starting concentration of 50 nM, were serially diluted by a factor of three across the plate. Human, mouse or monkey Ang-2FD protein conjugated to human IgG (Ang-2FD-hFc) were added to final concentrations of 2 nM, 8 nM, or 2 nM respectively and incubated for one hour at room temperature. The antibody/Ang-2FD-Fc mixture was then added to the plate containing hTie-2-mFc and incubated for one hour at room temperature. Detection of Ang-2FD-hFc bound to hTie-2-mFc protein was determined with Horse-Radish Peroxidase (HRP) conjugated to a-human IgG antibody (Jackson Immuno Research Lab, West Grove, Pa.) and developed by standard colorimetric response using tetramethylbenzidine (TMB) substrate (BD Biosciences, San Jose, Calif.). Absorbance was read at OD450 for 0.1 sec.
(In general: An ELISA detects its analyte on a solid surface through an enzyme-linked reagent.)

The target of the next data set is T1, hAng-2FD-mFc S-417-I (Homo sapiens, UniProt O15123, S417I).
T1 construct: made in house
T1 sequence (O15123 with tags, fused parts or gaps S417I): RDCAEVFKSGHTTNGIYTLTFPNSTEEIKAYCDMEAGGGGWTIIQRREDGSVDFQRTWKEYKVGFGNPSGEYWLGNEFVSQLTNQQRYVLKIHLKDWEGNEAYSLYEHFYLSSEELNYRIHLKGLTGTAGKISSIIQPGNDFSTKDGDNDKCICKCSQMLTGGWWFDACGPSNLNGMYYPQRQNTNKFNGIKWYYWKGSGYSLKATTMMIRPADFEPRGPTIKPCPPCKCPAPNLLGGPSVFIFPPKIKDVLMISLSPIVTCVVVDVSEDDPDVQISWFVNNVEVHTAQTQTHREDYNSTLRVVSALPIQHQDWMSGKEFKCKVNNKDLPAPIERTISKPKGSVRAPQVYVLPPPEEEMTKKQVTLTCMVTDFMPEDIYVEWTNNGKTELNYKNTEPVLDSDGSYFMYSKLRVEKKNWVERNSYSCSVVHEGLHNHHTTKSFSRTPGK
The experiment in a line: Ang-2FD-mFc point mutant binding experiment (SPR), S-417-I. As to conditions: S-417-I mutant captured; antibody/peptibody at 100 nM; 25° C. The source says:
To further characterize binding between hAng2 and anti-hAng2 mAbs of the invention, seven variant hAng2-FD-mFc proteins were generated, each containing a single point mutation. Amino acids selected for mutation were based on the difference in sequence between hAng-2 and hAng-1 in the region that interacts with hTie-2 (FIG. 1). In particular, amino acids within the fibrinogen-like domain (FD) of Ang-2 which are believed to interact with Tie-2 based on crystal structure analysis, but which differ from the corresponding amino acid in Ang-1, were individually mutated to the corresponding hAng-1 residue. The results of this example indicate the amino acid residues of hAng-2 with which the Ang-2 preferential binding antibodies interact.
In this experiment, each of the seven hAng-2FD-mFc mutant proteins were captured (˜147-283 RU) on an anti-mouse-Fc surface created through direct chemical coupling to a BIACORE™ chip. Then each Ang-2 antibody (or peptibody, as the case may be) at 100 nM was injected over the captured mFc-tagged hAng-2FD protein surface at a flowrate of 50 μl/min for 180 sec, and the dissociation of variant hAng2-FD-mFc and antibody was monitored in real time for 20 min at 25° C.

The test system of data set [2] is advanced solid tumor malignancies. The experiment in a line: Ascending, multiple-dose clinical trial of intravenously administered mAb1 in patients with advanced cancer. It counts as in vivo. As for the experimental part:
This study was an open-label, ascending, multiple-dose study of mAb1 administered as an intravenous (IV) infusion (30 minutes) at doses of 1, 3, 6, 12 or 20 mg/kg once every 2 weeks. The study was conducted in patients with advanced solid tumor malignancies who have failed conventional therapy. The purpose of the study was to explore the safety, recommended dose (RD), pharmacokinetics (PK), pharmacodynamics (PD) and anti-tumor activity of mAb1 (also known as “H1H685P”).
Patients were screened to determine eligibility within 28 days prior to the first dose administration. Three patients were assigned to each of the five sequential cohorts (1, 3, 6, 12 or 20 mg/kg). Patients received mAb1 as a 30 minute IV infusion on Days 1 and 15 of each 4-week cycle (28 days). The dose of mAb1 was escalated until the recommended dose was determined, based on safety, tolerability, PK, PD testing and/or maximum tolerated dose (MTD). The MTD is defined as the highest dose at which less than 33% of patients experience dose-limiting toxicity (DLT) during the first cycle of therapy.
Six dose levels were planned for studying dose escalation. Starting at dose 1, a minimum of 3 patients was entered at each dose level. […] If no further cycle 1 DLT was observed, dose escalation proceeded to the next dose level. If two or more patients experienced a cycle 1 DLT, dose escalation was stopped and the previous lower dose level was expanded to 6 patients. Once the RD was determined, up to 10 additional patients were enrolled to evaluate safety and other biological/clinical effects. A separate cohort was planned for patients with hepatocellular carcinoma (HCC) where up to 10 patients were enrolled based on the eligibility criteria (listed below).
A DLT is defined by any of the following treatment-related events occurring during the first cycle (28 days) of study treatment: (1) Hematologic toxicity as evidenced by (a) Grade 3 or 4 neutropenia complicated by fever 38.5° C. or infection; (b) Grade 4 neutropenia of at least 7 days duration; (c) Grade 3 thrombocytopenia complicated by hemorrhage; or (d) Grade 4 thrombocytopenia; and/or (2) Non-hematologic toxicity as evidenced by (a) any Grade 4 non-hematologic toxicity; or (b) Grade 3 non-hematologic toxicities except fatigue, anorexia, nausea, vomiting or diarrhea that can be controlled by medication. Grade 3 laboratory changes that reflected tumor burden were not considered as DLT.
Safety was assessed throughout the study by monitoring Adverse Events and Serious Adverse Events.
For tumor assessment, a CT or MRI was performed at the screening visit (within 28 days prior to infusion) and during every even-numbered cycle (eg cycles 2, 4, 6, 8) between days 15 and 28 and when disease progression was suspected. Tumor assessment was performed according to Response Evaluation Criteria in Solid Tumors version 1.1 (RECIST version 1.1). RECIST criteria are developed to facilitate objective assessment of change in tumor burden such as tumor shrinkage and time to development of disease progression. RECIST guidelines are posted on the worldwide web at http://ctep(dot)cancer(dot)gov(slash)protocoldevelopment(slash)docs(slash)recist_guideline(dot)pdf. Tumor marker assessments were also collected, when available.
Blood samples were collected for RNA, serum cytokine testing, molecular profiling, anti-drug antibody (ADA) and serum mAb1 levels at screening and post-infusion on days 1, 2, 3, 8, 15 and 22 of cycle 1, and on day 1 of subsequent cycles. Tumor biopsies were obtained for immunohistochemistry studies for Ang-2. Results were scored as positive for Ang-2 in association with expression of endothelial cell CD31.

The term Kd denotes a measure of binding affinity in units of concentration.

Sequence of Monkey Ang-2FD-hFc binding to hTie-2-mFc (as listed by the source): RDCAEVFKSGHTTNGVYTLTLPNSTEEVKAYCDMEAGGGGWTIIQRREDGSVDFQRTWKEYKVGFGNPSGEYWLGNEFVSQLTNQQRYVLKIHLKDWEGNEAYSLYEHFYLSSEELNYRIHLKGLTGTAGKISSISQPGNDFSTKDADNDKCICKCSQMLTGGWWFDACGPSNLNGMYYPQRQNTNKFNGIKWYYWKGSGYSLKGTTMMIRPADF
Sequence of Monkey Ang-2FD-hFc binding to hTie-2-mFc (Q02763 with tags, fused parts or gaps Q346P/T695I partner limits assumed): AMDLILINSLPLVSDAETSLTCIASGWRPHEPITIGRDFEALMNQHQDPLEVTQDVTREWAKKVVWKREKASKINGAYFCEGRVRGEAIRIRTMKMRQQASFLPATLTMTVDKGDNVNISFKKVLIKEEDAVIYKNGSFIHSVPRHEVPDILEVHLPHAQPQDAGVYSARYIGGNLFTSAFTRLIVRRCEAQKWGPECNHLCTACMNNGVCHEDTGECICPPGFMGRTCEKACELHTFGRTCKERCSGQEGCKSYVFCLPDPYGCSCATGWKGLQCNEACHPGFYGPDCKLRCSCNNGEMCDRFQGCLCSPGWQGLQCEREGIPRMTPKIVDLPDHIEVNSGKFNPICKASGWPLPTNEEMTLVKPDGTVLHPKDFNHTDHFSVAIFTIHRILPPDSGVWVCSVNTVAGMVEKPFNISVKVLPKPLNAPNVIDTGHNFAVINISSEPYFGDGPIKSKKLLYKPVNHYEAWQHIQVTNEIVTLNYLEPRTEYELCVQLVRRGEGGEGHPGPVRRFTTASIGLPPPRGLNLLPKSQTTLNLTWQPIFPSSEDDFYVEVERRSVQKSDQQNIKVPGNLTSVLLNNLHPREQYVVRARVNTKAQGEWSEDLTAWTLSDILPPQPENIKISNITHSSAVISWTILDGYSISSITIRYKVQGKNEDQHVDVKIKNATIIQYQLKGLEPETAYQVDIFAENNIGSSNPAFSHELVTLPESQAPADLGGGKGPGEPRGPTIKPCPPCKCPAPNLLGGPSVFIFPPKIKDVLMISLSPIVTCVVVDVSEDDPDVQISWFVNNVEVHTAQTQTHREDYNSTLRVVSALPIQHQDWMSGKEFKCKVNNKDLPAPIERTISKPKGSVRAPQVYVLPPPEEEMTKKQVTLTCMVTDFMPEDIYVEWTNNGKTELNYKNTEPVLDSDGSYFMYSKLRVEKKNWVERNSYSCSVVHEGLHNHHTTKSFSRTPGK

Regarding “H1H685P: human anti-Ang-2 antibody, HCVR/LCVR SEQ ID NOs 18/20; also referred to as mAb1 [Antibody H1H685P]”, the “Percent Blocking of Ang-2FD Binding to Tie-2, Monkey Ang-2FD-hFc” value in data set [1] came to 62.2%. Further, in the data set with hAng-2FD-mFc S-417-I, the affinity, expressed as Kd, was 0.0305 nM and the RU is given as 127.65 RU. Besides, the “Positive ADA detected” value in data set [2] (3 mg/kg) is on record as 1 patient. Besides, the “Confirmed sustained patient response (PR), duration” value in data set [2] (1 patient with adrenocortical cancer treated at 1 mg/kg) was 16 wks. Further, the “Stable disease (SD), patients evaluable for efficacy” value in data set [2] (17 of 32 patients) is given as 53%. Further, the “Total circulating serum Ang2 levels following treatment” value in data set [2] (all cohorts) is on record as “saturated”. In addition, in data set [2] (human, in vivo, iv), the “Maximum tolerated dose (MTD)” value was “not reached”. Also, the “Stable disease (SD), duration” value in data set [2] (one patient with thyroid cancer) worked out at 46 weeks. In addition, in data set [2] (patients), the “Treatment-related adverse events (G½): abdominal distension” value amounted to 11%, the “Treatment-related adverse events (G½): decreased appetite” value was determined as 11%, the “Treatment-related adverse events (G½): diarrhea” value was 14% and the “Treatment-related adverse events (G½): fatigue” value is 19%. Besides, in data set [2] (patients), the “Treatment-related adverse events (G½): peripheral edema” value was 17% and the “≥Grade 3 TRAEs” value was “no ≥Grade 3 TRAEs”. For the same substance, in data set [2] (patients evaluable for efficacy), the “Stable disease (SD), duration range” value is recorded as 3.3-46.8 weeks. In data set [2] (patients with advanced cancer), the Tolerability entry is on record as “generally well tolerated”. The “Dose-limiting toxicities (DLTs)” value in data set [2] (patients, 1, 3, 6, 12 and 20 mg/kg IV every 2 weeks) is given as “No DLTs”. Moreover, the “Pharmacokinetics (PK) across all dose levels” value in data set [2] (patients, IV) was “linear and dose-proportional”.
